Source: patent US9657091 (AC IMMUNE S A, dated 2017)
Positions count from the first letter of the chain named. Blank lines part the entries; values can stand above or below the binder they belong to.

Tests used:
[1] = target: T1, Tau-derived peptide Tau401-418, not phosphorylated (T4.6) (human); assay: direct ELISA on plate-coated peptide (10 ug/mL), AP-conjugated anti-human IgG, O.D. at 405 nm
T1 construct: it is called the non-phosphorylated version of the same peptide as T4.5 (Tau401-418); also called corresponding non-phosphorylated Tau peptide
T1 peptide: GDTSPRHLSNVSSTGSID
Method: Binding of hACl-36-2B6-Ab1 and hACl-36-3A8-Ab1 to T4 Peptides by ELISA 1.1. Method 1.1.1 Phospho-Tau Binding Assay To test the binding of the antibody to pTau, an ELISA assay was used. Nunc MaxiSorp 96-well plates (Nunc, Denmark) were coated with 10 µg/mL of the Tau-derived peptide Tau401-418, phosphorylated (T4.5) or not (T4.6) on serine 409. Coating was done overnight in phosphate-buffered saline (PBS; Sigma-Aldrich, Switzerland) at 4° C. Plates were washed thoroughly with 0.05% Tween20/PBS and then blocked with 1% bovine serum albumin (BSA; Sigma-Aldrich) in 0.05% Tween20/PBS for 1 hr at 37° C. The supernatant containing the antibody being tested was then added in 8 two-fold dilutions, starting at 0.5 µg/mL, and incubated for 2 hr at 37° C. Plates were then washed as described previously, and an alkaline phosphatase (AP) conjugated goat anti-human IgG (Jackson ImmunoResearch Laboratories, England) was added at 1/2,000 dilution in 0.05% Tween20/PBS for 2 hr at 37° C. After washing, plates were incubated with p-nitrophenyl phosphate disodium hexahydrate (pNPP; Sigma-Aldrich, Switzerland) phosphatase substrate solution, and read at 405 nm following 1 hr incubation using a microplate reader (Tecan, Switzerland). Results are expressed as optical density (O.D.). […]

[2] = target: Tau-derived peptide Tau401-418, phosphorylated (T4.5) (human); assay: SPR (Biacore T100), antibody captured via Protein G on CM7 chip, peptide T4.5 as analyte 50-800 nM, single-cycle kinetics, 1:1 Langmuir fit
Tau-derived peptide Tau401-418, phosphorylated (T4.5) (human), sequence (peptide, as listed by the source): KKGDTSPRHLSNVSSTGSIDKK

- binding result [1]: no binding (tested: 0.5 ug/mL)
- Kd [2]: 67 nM
- koff [2]: 0.0036 s⁻¹
- kon [2]: 54000 M⁻¹ s⁻¹
B1: humanized antibody hACl-36-2B6-Ab1 (IgG4) (antibody, V domains shown)
VH: QVQLVQSGAEVKKPGSSVKVSCKASGYTFTDYYMNWVRQAPGQGLEWIGDINPNRGGTTYNQKFKGRVTITVDKSTSTAYMELSSLRSEDTAVYYCASYYAVGYWGQGTTVTVSS
VL: DIVMTQTPLSLPVTPGEPASISCRSSQSLVHSHGKTYLHWYLQKPGQSPQLLIYKVSNRFSGVPDRFSGSGSGTDFTLKISRVEAEDVGVYFCSQTAHFPYTFGGGTKVEIKR
notes: Humanized IgG4, kappa; also called 2B6A10C11

- binding result [1]: no binding (tested: 0.5 ug/mL)
B2: humanized antibody hACl-36-3A8-Ab1 (IgG4) (antibody, V domains shown)
VH: B1 VH
VL: B1 VL with S28R
notes: Humanized IgG4, kappa; Tested as a supernatant containing the antibody; also called 3A8A12G7
